Here are results for 2 molecules from patent publication US20210246209A1 (SHANGHAI JUNSHI BIOSCIENCES, published 2021).

Changes are numbered by the printed parent chain.

The target in assay [1] is T1, human BTLA expressed on cells (human, UniProt Q7Z6A9 31-289).
T1 construct: whole, on cells
In words: FACS on 293F cells expressing hBTLA. The procedure:
The humanized anti-BTLA antibodies were determined for their binding ability to hBTLA expressed on cells using cell-based flow cytometry (FACS). […] Then the cells were mixed with 50 μL of antibody diluent at different concentrations (initial concentration: 10 μg/mL, 3-fold titration), and incubated at room temperature for 30 minutes. After being washed with an FACS buffer twice, the cells were added with 100 μL of goat anti-human IgG-PE antibody, incubated for 30 minutes away from light, and assayed by FACS after two washes with an FACS buffer. The washed cells were resuspended in 4° C. buffer containing propidium iodide (PI) and 0.02% sodium azide that prevents receptor internalization and analyzed by flow cytometry. Viable cells were gated on the basis of PI positive cells being excluded from the FSC/SSC gate and their geometric mean fluorescence intensity was measured. The data were analyzed using a sigmoidal dose-response model within Prism™ software.
The humanized antibodies hu17, hu18, and hu19 can effectively bind to hBTLA on 293 cells.

The target in assay [2] is T2, recombinant protein of human BTLA extracellular domain (hBTLA-ECD-FC) (human, UniProt Q7Z6A9 31-157, biotin-labeled in the FACS blocking assays (site not stated)).
T2 construct: extracellular domain; also called BTLA-Fc; biotin-labeled hBTLA; not shown: Fc of the self-constructed HX1-FC expression plasmid
T2 sequence (looked up): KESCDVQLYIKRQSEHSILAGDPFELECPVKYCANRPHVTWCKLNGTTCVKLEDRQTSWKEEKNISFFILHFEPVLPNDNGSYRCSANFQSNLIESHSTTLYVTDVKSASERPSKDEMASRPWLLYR
In words: SPR, Biacore T200, BTLA-Fc amine-coupled to chip, antibody as analyte, 1:1 fit. As for the experimental part:
The assay was carried out using a Biacore T200 instrument (GE Healthcare). Series S CMS chip was loaded on the instrument and the system buffer used was HBS-EP+(10 mM HEPES, pH 7.4, 150 mM NaCl, 3 mM EDTA, 0.05% surfactant P20). The BTLA-Fc antigens were coupled in a chip detection channel: injecting a mixed solution of 400 mM EDC and 100 mM NHS at 10 μL/min for 420 s to activate the surface of the chip, diluting the BTLA-Fc antigens in a 10 mM sodium acetate/acetic acid (pH 5.5) buffer to a final concentration of 20 μg/mL and injecting at 10 μL/min for coupling, and injecting a 1M ethanolamine-hydrochloric acid solution (pH 8.5) at 10 μL/min for 420 s for blocking.
Antibodies were diluted in a 2-fold gradient with Biacore system buffer for a total of 6 concentration points. Concentration gradients were 24 nM, 12 nM, 6 nM, 3 nM, 1.5 nM and 0.75 nM, with 24 nM being a replicate. Data were analyzed using Biacore T200 Evaluation Software (version no. 3.0, GE Healthcare). Data were fitted using a model of 1:1 Binding. The kinetic constants of the binding of the antibodies to the antigens, namely, the association rate constant ka (1/Ms), dissociation rate constant kd (1/s) and the affinity constant kd (M), were obtained by fitting, and the results are shown in Table 8.
Background: In SPR one partner is held on a chip, and binding of the other changes the refractive index at the surface.

Assay [3] addresses T3, hBTLA (human BTLA protein coated on plates or coupled to a chip) (human, UniProt Q7Z6A9 31-157, limits assumed).
T3 sequence (looked up): T2 sequence (looked up)
The experiment in a line: ELISA, hBTLA coated at 0.5 µg/mL, anti-human IgG4-HRP detection. As for the experimental part:
The binding specificity of the humanized antibodies to hBTLA was determined by conventional ELISA method. A 96-well microplate was coated with 0.5 μg/mL hBTLA and incubated at 37° C. for 60 minutes. The solution in wells was then discarded, and the wells were washed 3 times with washing buffer, and blocked for 60 minutes with PBS containing 2% BSA. After being washed 3 times with washing buffer, the wells were added with gradiently-diluted antibodies, incubated at 37° C. for 60 minutes, and washed 3 times with washing buffer before adding a HRP-labeled mouse anti-human IgG4 secondary antibody diluted at 1:10000. The mixture was incubated at 37° C. for 1 hour, washed three times with washing buffer, and added with 100 μL of TMB substrate solution for color development at room temperature for 30 minutes, then the reaction was stopped with 100 μL of 2M hydrochloric acid solution and the absorbance was read at 450 nm.
The humanized antibodies hu17, hu18, and hu19 can specifically bind to hBTLA.
In general terms: In an ELISA, binding on a coated surface is turned into a signal by an enzyme label.

A further assay concerns the target T4, murine BTLA (murine, UniProt Q7TSA3 30-183, limits assumed).
T4 sequence (looked up): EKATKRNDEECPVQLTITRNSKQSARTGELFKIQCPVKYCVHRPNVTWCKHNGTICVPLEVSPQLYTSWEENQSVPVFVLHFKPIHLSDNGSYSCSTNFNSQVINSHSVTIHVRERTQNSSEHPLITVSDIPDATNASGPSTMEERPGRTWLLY
The experiment in a line: sheet shows OD:450nm against Log:ng/mL (ELISA-type readout); the text describes a Fortebio/biosensor assay with BTLA coupled to a chip.

Assay [4] deals with T1, human BTLA expressed on cells. In words: cell-based or functional assay.
Assay [5] addresses T2, recombinant protein of human BTLA …. The experiment in a line: FACS, blocking of biotin-labeled hBTLA binding to hHVEM-293F cells. As for the experimental part:
Then the cells were mixed with previously biotin-labeled hBTLA (1 μg/mL) protein, incubated at 4° C. for 15 minutes, followed by mixing with 50 μL of humanized antibody diluent (initial concentration: 5 μg/mL, 3-fold titration) at different concentrations, and incubating at room temperature for 30 minutes. After being washed with an FACS buffer twice, the cells were added with 100 μL of goat anti-human IgG-PE antibody, incubated for 30 minutes away from light, and assayed by FACS after two washes with an FACS buffer. The washed cells were resuspended in 4° C. buffer containing propidium iodide (PI) and 0.02% sodium azide that prevents receptor internalization and analyzed by flow cytometry. Viable cells were gated on the basis of PI positive cells being excluded from the FSC/SSC gate and their geometric mean fluorescence intensity was measured. The data were analyzed using a sigmoidal dose-response model within Prism™ software.
The […] antibodies hu17, hu18, and hu19 can effectively block the binding of human BTLA to HVEM on the cell surface.
Background: Flow cytometry measures light scatter and fluorescence of single cells or particles in a stream.

Assay [6] concerns the target recombinant human FcγRIIIA (CD16a) V176 (human) (UniProt P08637). In words: SPR, Biacore T200, Fc receptor captured by anti-His antibody, antibody injected.
For assay [7], the target named is recombinant human FcγRI (CD64) (human) (UniProt P12314). The assay is described as above.
Chain of recombinant human FcγRI (CD64) (human) (P12314 16-288 limits assumed): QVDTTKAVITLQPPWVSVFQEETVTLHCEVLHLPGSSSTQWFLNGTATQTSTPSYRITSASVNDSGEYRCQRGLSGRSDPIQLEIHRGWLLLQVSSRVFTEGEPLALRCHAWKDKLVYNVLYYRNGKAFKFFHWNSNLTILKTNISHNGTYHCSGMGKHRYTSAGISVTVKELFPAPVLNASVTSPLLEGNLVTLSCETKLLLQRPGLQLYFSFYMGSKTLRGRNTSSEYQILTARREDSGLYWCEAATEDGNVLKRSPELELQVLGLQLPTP
In assay [8] the target is recombinant human FcRn (human) (UniProt P55899). The assay is described as above.
Chain of recombinant human FcRn (human) (P55899 24-297 limits assumed, form in doubt, chain 1 of 2): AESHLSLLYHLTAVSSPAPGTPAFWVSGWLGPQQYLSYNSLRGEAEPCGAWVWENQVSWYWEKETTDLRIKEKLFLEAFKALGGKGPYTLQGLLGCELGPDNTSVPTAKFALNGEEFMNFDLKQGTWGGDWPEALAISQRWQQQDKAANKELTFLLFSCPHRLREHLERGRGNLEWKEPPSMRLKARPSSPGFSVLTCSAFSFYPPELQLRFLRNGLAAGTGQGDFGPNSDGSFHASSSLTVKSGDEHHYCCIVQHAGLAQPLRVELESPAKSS
Chain of recombinant human FcRn (human) (chain, as listed by the source limits assumed, form in doubt, chain 2 of 2): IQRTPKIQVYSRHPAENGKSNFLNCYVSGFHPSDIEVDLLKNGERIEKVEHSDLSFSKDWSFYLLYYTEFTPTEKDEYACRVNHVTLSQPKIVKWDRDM
In assay [9] the target is recombinant human FcγRIIIA (CD16a) V176 (human) (UniProt P08637). In words: SPR, Biacore T200, Fc receptor captured by anti-His antibody, antibody injected; IgG4 subtype (hu18), kinetics N/A.
Chain of recombinant human FcγRIIIA (CD16a) V176 (human) (P08637 17-208 F176V limits assumed): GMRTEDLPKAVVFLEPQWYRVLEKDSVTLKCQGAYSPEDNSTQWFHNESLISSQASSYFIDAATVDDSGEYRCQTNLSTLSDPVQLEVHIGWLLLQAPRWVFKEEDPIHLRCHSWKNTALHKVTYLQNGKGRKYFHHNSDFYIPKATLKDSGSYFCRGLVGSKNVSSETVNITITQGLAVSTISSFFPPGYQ

B1: humanized antibody hu17 (antibody, V domains shown)
VH: QVQLVQSGAEVKKPGASVKLSCKASGYNFKHTYAHWVRQAPGQGLEWIGRIDPANGNTKYDPKFQGRATMTADTASNTAYLELSSLRSEDTAVYYCVADHYGSSLLDYWGQGTLVTVSS
VL: DIVMTQTPLSLSVTPGQPASISCKSSQSLLDSDGKTYLNWFQQRPGQSPRRLIYLVSKLDSGVPDRFSGSGSGTDFTLKISRVEAEDVGVYYCWQGTYFPYTFGQGTKLEIK
notes: also called hull [sic]; humanized antibody 17
B1: in assay [1], the half-maximal effective concentration (EC50) (commonly the concentration needed to bring the measured effect to its halfway point) was found to be 0.0967 µg/mL. Moreover, in assay [2], the Kd (in general, the free concentration of one partner at which half of the binding sites on the other are occupied at equilibrium, for simple one-to-one binding) is 0.186 nM; the koff (commonly the rate constant with which the complex falls apart) was determined as 0.000116 s⁻¹; the on-rate constant (kon) (as a rule, the rate constant with which the complex forms) is 624000 M⁻¹ s⁻¹. Moreover, in [3], the midpoint of the response, the EC50, lay at 0.0063 µg/mL. Also, the binding result in the assay with murine BTLA is “no binding (tested: 1000 ng/mL)”. Moreover, the “EC50 (luciferase reporter, T cell activation)” value in assay [4] was 0.257 µg/mL. The 50% inhibitory concentration (IC50) (in general, the concentration needed to halve the response being measured) in assay [5] was 0.143 µg/mL.

B2: humanized antibody hu18 (antibody, IgG4, V domains shown)
VH: B1 VH
VL: B1 VL with I2V
notes: also called JS004; recombinant human anti-BTLA antibody
For B2, in [6], the fold weaker than the control antibody of the IgG1 subtype (hu18-IgG1) came out at 400 fold. In addition, the Kd amounted to 18.4 nM in assay [7], 138 nM in [8], 60200 nM in [9] and 0.136 nM in assay [2]. For the same molecule, the koff came out at 0.00387 s⁻¹ in assay [7], 0.0708 s⁻¹ in assay [8] and 8.67e-05 s⁻¹ in assay [2]. Further, the kon in assay [7] came to 210000 M⁻¹ s⁻¹; in assay [8], 512000 M⁻¹ s⁻¹; in assay [2], 639000 M⁻¹ s⁻¹. In addition, the EC50 in assay [1] is 0.0893 µg/mL; in assay [3] it was 0.0054 µg/mL. In addition, in [4], the “EC50 (luciferase reporter, T cell activation)” value stood at 0.277 µg/mL. Besides, the IC50 in [5] is 0.172 µg/mL.
